This passage reports stoichiometry N results from publication PMC8616854.

The target of assay [1] is CdiA‐CT^BWH57 toxin (nuclease) domain (Serratia marcescens BWH57). The assay can be described thus: crystal structure; CdiA-CT•CdiI complex, 1.59 Å; the N-terminal domain of CdiA-CT was cleaved off by in situ proteolysis before crystallisation.
In assay [2] the target is Histidine zipper coiled coil protein from Meiothermus silvanus (Meio) (Meiothermus silvanus). The assay is described as follows: crystal structure; crystal structures of the histidine zipper proteins (1.35 to 1.93 Å); antiparallel homo-dimers.
Assay [3] concerns the target Histidine zipper coiled coil protein from Methylobacter tundripaludum (Tuna) (Methylobacter tundripaludum). The description is as above.
Assay [4] deals with Histidine zipper coiled coil protein from Nitrosococcus oceani (Nitro) (Nitrosococcus oceani). The description is as above.

As to “CdiI^BWH57 immunity protein (natural protein)”, in assay [1], the stoichiometry N (as a rule, the number of molecules, sites or subunits per partner or assembly) turned out to be 1.

For the substance “Histidine zipper coiled coil protein from Meiothermus silvanus (Meio) (natural protein)”, the stoichiometry N in assay [2] is 2.

“Histidine zipper coiled coil protein from Methylobacter tundripaludum (Tuna) (natural protein)” gave a stoichiometry N in assay [3] of 2.

“Histidine zipper coiled coil protein from Nitrosococcus oceani (Nitro) (natural protein)” came in with a stoichiometry N in assay [4] of 2.
